Patent US20050221433A1
Numbering of substitutions follows the chain as printed. Names may count otherwise.

Biological target: recombinant human IL-18 (human) (UniProt Q14116)
Assay: cell-based or functional assay

Sequence of recombinant human IL-18 (human) (Q14116 37-193 limits assumed): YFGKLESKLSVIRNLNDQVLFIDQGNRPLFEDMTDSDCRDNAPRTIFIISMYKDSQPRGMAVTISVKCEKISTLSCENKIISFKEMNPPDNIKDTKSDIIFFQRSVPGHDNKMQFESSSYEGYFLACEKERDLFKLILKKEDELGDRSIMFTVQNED

B1: mIL18BPd (C45S).mFc (Fc fusion, not shown: a dimerising Fc or GST)
chain: TSAPQTTATVLTGSSKDPSSSWSPAVPTKQYPALDVIWPEKEVPLNGTLTLSCTACSRFPYFSILYWLGNGSFIEHLPGRLKEGHTSREHRNTSTWLHRALVLEELSPTLRSTNFSCLFVDPGQVAQYHIILAQLWDGLKTAPPPSQETLSSHSPVSRSAGPGVA
- IC50 (M), HEK293/NFkB-luciferase bioassay: 1.67e-10 M

B2: mIL18BPd.mFc (Fc fusion, not shown: a dimerising Fc or GST)
chain: B1 chain with S19C
- IC50 (M), HEK293/NFkB-luciferase bioassay: 9.6e-11 M
